{"source": "paper PMC6270503", "about": "“The Clip-Segment of the von Willebrand Domain 1 of the BMP Modulator Protein Crossveinless 2 Is Preformed” (Molecules, 2013)", "binders": {"B1": {"name": "CV2 VWC1 C9A/C31A (domain or fragment)", "chain": "not shown", "modifications": "Mature numbering = entity position minus 3 (C9A/C31A = C12A/C34A). Introduced N-terminal Trp kept; vector Gly-Ser left out. Remaining native disulfides, including Cys26-Cys60, Cys43-Cys61 and …"}}, "molecular_target": "T1, E. coli derived recombinant human BMP-2 (human, UniProt P12643 283-396)", "T1 construct": "Bone morphogenetic protein 2, human, recombinant from E. coli; also called bone morphogenetic protein 2", "T1 sequence (P12643 283-396)": "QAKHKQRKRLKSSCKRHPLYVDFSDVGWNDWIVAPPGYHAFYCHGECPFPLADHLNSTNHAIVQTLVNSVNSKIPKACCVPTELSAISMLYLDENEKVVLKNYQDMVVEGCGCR", "assay": "SPR; ProteON XPR36, GLC chip; BMP-2 immobilised by amine coupling (1000-2000 RU), CV2 VWC1 proteins as analytes in six concentrations; 25 °C, HBST500 (10 mM HEPES pH 7.4, 500 mM NaCl, 0.005% Tween20); global Langmuir 1:1 fit, KD = koff/kon, or from dose-dependency of equilibrium binding for weak or fast binders; apparent KD", "conditions": "both partners purified"}
{"binder": "B1", "values": [{"measurement": "Kd", "value": "≥ 3.3", "unit": "µM"}, {"measurement": "koff", "value": "≥ 0.05", "unit": "s⁻¹"}]}
